Publication PMC9587022 (2022)

B1: HA-tagged UL97, wild type, full length (pCGN-HA-UL97) [human cytomegalovirus (HCMV)] / Flag-tagged 14-3-3 η [human] (parent complex)
chain 1: MSSALRSRARSASLGTTTQGWDPPPLRRPSRARRRQWMREAAQAAAQAAVQAAQAAAAQVAQAHVDENEVVDLMADEAGGGVTTLTTLSSVSTTTVLGHATFSACVRSDVMRDGEKEDAASDKENLRRPVVPSTSSRGSAASGDGYHGLRCRETSAMWSFEYDRDGDVTSVRRALFTGGSDPSDSVSGVRGGRKRPLRPPLVSLARTPLCRRRVGGVDAVLEENDVELRAESQDSAVASGPGRIPQPLSGSSGEESATAVEADSTSHDDVHCTCSNDQIITTSIRGLTCDPRMFLRLTHPELCELSISYLLVYVPKEDDFCHKICYAVDMSDESYRLGQGSFGEVWPLDRYRVVKVARKHSETVLTVWMSGLIRTRAAGEQQQPPSLVGTGVHRGLLTATGCCLLHNVTVHRRFHTDMFHHDQWKLACIDSYRRAFCTLADAIKFLNHQCRVCHFDITPMNVLIDVNPHNPSEIVRAALCDYSLSEPYPDYNERCVAVFQETGTARRIPNCSHRLRECYHPAFRPMPLQKLLICDPHARFPVAGLRRYCMSELSALGNVLGFCLMRLLDRRGLDEVRMGTEALLFKHAGAACRALENGKLTHCSDACLLILAAQMSYGACLLGEHGAALVSHTLRFVEAKMSSCRVRAFRRFYHECSQTMLHEYVRKNVERLLATSDGLYLYNAFRRTTSIICEEDLDGDCRQLFPE
chain 2: MGDREQLLQRARLAEQAERYDDMASAMKAVTELNEPLSNEDRNLLSVAYKNVVGARRSSWRVISSIEQKTMADGNEKKLEKVKAYREKIEKELETVCNDVLSLLDKFLIKNCNDFQYESKVFYLKMKGDYYRYLAEVASGEKKNSVVEASEAAYKEAFEISKEQMQPTHPIRLGLALNFSVFYYEIQNAPEQACLLAKQAFDDAIAELDTLNEDSYKDSTLIMQLLRDNLTLWTSDQQDEEAGEGN
B2: HA-tagged UL97, wild type, full length (pCGN-HA-UL97) [human cytomegalovirus (HCMV)] / Flag-tagged 14-3-3 β [human] (parent complex)
chain 1: B1 chain 1
chain 2: MTMDKSELVQKAKLAEQAERYDDMAAAMKAVTEQGHELSNEERNLLSVAYKNVVGARRSSWRVISSIEQKTERNEKKQQMGKEYREKIEAELQDICNDVLELLDKYLIPNATQPESKVFYLKMKGDYFRYLSEVASGDNKQTTVSNSQQAYQEAFEISKKEMQPTHPIRLGLALNFSVFYYEILNSPEKACSLAKTAFDEAIAELDTLNEESYKDSTLIMQLLRDNLTLWTSENQGDEGDAGEGEN
B3: HA-tagged UL97, wild type, full length (pCGN-HA-UL97) [human cytomegalovirus (HCMV)] / Flag-tagged 14-3-3 γ [human] (parent complex)
chain 1: B1 chain 1
chain 2: MVDREQLVQKARLAEQAERYDDMAAAMKNVTELNEPLSNEERNLLSVAYKNVVGARRSSWRVISSIEQKTSADGNEKKIEMVRAYREKIEKELEAVCQDVLSLLDNYLIKNCSETQYESKVFYLKMKGDYYRYLAEVATGEKRATVVESSEKAYSEAHEISKEHMQPTHPIRLGLALNYSVFYYEIQNAPEQACHLAKTAFDDAIAELDTLNEDSYKDSTLIMQLLRDNLTLWTSDQQDDDGGEGNN
B4: HA-tagged UL97, wild type, full length (pCGN-HA-UL97) [human cytomegalovirus (HCMV)] / Flag-tagged 14-3-3 ε [human] (parent complex)
chain 1: B1 chain 1
chain 2: MDDREDLVYQAKLAEQAERYDEMVESMKKVAGMDVELTVEERNLLSVAYKNVIGARRASWRIISSIEQKEENKGGEDKLKMIREYRQMVETELKLICCDILDVLDKHLIPAANTGESKVFYYKMKGDYHRYLAEFATGNDRKEAAENSLVAYKAASDIAMTELPPTHPIRLGLALNFSVFYYEILNSPDRACRLAKAAFDDAIAELDTLSEESYKDSTLIMQLLRDNLTLWTSDMQGDGEEQNKEALQDVEDENQ
B5: HA-tagged UL97, wild type, full length (pCGN-HA-UL97) [human cytomegalovirus (HCMV)] / Flag-tagged 14-3-3 θ [human] (parent complex)
chain 1: B1 chain 1
chain 2: MEKTELIQKAKLAEQAERYDDMATCMKAVTEQGAELSNEERNLLSVAYKNVVGGRRSAWRVISSIEQKTDTSDKKLQLIKDYREKVESELRSICTTVLELLDKYLIANATNPESKVFYLKMKGDYFRYLAEVACGDDRKQTIDNSQGAYQEAFDISKKEMQPTHPIRLGLALNFSVFYYEILNNPELACTLAKTAFDEAIAELDTLNEDSYKDSTLIMQLLRDNLTLWTSDSAGEECDAAEGAEN

Variants of: B1
Test: co-immunoprecipitation (IP anti-HA, Western blot quantification); U-2 OS cells; WT UL97 0.6 μg, mutant 1.2 μg expression vector; 1 μg Flag-14-3-3 plasmid; read off a plot

Row | Variant | ratio to parent
1 | chain 1 S13A | ~0.17
2 | chain 1 K355Q | ~0.32

Variants of: B2
Test: as above

Row | Variant | ratio to parent
3 | chain 1 K355Q | ~0.45
4 | chain 1 S13A | ~0.14

Variants of: B3
Test: as above

Row | Variant | ratio to parent
5 | chain 1 K355Q | ~0.62
6 | chain 1 S13A | ~0.07

Variants of: B4
Test: as above

Row | Variant | ratio to parent
7 | chain 1 S13A | ~0.06
8 | chain 1 K355Q | ~0.42

Variants of: B5
Test: as above

Row | Variant | ratio to parent
9 | chain 1 K355Q | ~0.2
10 | chain 1 S13A | ~0.05
